Data from paper PMC12439581 (mAbs, 2025).
“And” between values parts separate entries of the source, which are not always exact repeats. Equal entries are not always repeated.

How the values were obtained:
[1] = target: T1, biotinylated α-cobratoxin from Naja kaouthia (Naja kaouthia, biotin through amine coupling (NHS-PEG4-Biotin), sites not stated); assay: BLI; conditions: both partners purified
T1 chain: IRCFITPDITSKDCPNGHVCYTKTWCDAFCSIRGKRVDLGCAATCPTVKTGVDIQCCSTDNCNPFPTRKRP

[2] = target: T2, biotinylated α-elapitoxin-Dpp2d from Dendroaspis polylepis (Dendroaspis polylepis (black mamba), UniProt C0HJD7); assay: BLI; […]; association at pH 7.4, dissociation at pH 5.5; 1:1 global fit; conditions: both partners purified
T2 sequence (C0HJD7 whole entry): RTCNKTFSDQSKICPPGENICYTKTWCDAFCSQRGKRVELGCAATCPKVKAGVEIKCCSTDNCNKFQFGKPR

[3] = target: T2, biotinylated α-elapitoxin-Dpp2d from …; assay: BLI; […]; association at pH 7.4, dissociation at pH 7.4; 1:1 global fit, […]; conditions: both partners purified
[4] = target: T3, biotinylated α-bungarotoxin from Bungarus multicinctus (Bungarus multicinctus); assay: as above; conditions: both partners purified
[5] = target: T3, biotinylated α-bungarotoxin from …; assay: BLI; […]; association at pH 7.4, dissociation at pH 5.5; 1:1 global fit; conditions: both partners purified
[6] = target: T3, biotinylated α-bungarotoxin from …; assay: BLI; […]; association at pH 7.4, dissociation at pH 7.4; 1:1 global fit, […]; conditions: both partners purified; remark: listed apart in the source
[7] = target: T4, biotinylated α-cobratoxin from Naja kaouthia (Naja kaouthia, UniProt P01391); assay: BLI; conditions: both partners purified
[8] = target: biotinylated α-bungarotoxin from Bungarus multicinctus (Bungarus multicinctus, UniProt P60615); assay: BLI; conditions: both partners purified
[9] = target: T5, biotinylated α-elapitoxin-Dpp2d from Dendroaspis polylepis (Dendroaspis polylepis (black mamba), UniProt C0HJD7); assay: BLI; conditions: both partners purified
Target sequence in this assay (C0HJD7 whole entry): as above

[10] = target: T5, biotinylated α-elapitoxin-Dpp2d from …; assay: BLI; […]; association at pH 7.4, dissociation at pH 7.4; 1:1 model, global fit; […]; conditions: both partners purified
Target sequence in this assay (C0HJD7 whole entry): as above

[11] = target: T6, α-bungarotoxin from Bungarus multicinctus (Bungarus multicinctus, UniProt P60615); assay: crystal structure; conditions: both partners purified
T6 construct: source: bought: Latoxan L8115, lyophilized purified protein

[12] = target: T4, biotinylated α-cobratoxin from Naja …; assay: DELFIA (dissociation-enhanced lanthanide fluorescence immunoassay); conditions: one partner purified
[13] = target: T5, biotinylated α-elapitoxin-Dpp2d from …; assay: as above; conditions: one partner purified

T3 sequence (P60615 22-95): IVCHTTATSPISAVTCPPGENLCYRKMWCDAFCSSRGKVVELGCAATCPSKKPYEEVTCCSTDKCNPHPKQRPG
biotinylated α-bungarotoxin from Bungarus multicinctus, sequence (P60615 22-95): as above
T6 sequence (P60615 22-95): as above

B1: A12 Fab (Fab, V domains shown)
VH: QVQLVQSGAEVKKPGSSVKVSCKASGGTFSSYAISWVRQAPGQGLEWMGGIIPIFGTANYAQKFQGRVTITADESTSTAYMELRSLRSDDTAVYYCARDNLGYCSGGSCYSDYYYYYMDVWGQGTLVTVSS
VL: NFMLTQPHSVSESPGKTVTFSCTRSSGRIVSDYVHWYQQRPGSAPTTVIYEDNQRPSGVPDRFSGSIDSSSNSASLTISGLKTEDEADYYCQSYDSSNAYVVFGGGTKVTVL
- Kd [1]: 4.2 ± 0.9 nM
- koff [1]: 0.00021 s⁻¹ and 0.00053 s⁻¹
- kon [1]: 55000 M⁻¹ s⁻¹
- koff [2]: 0.00036 s⁻¹
- Kd [3]: 1.4 ± 1.2 nM
- koff [3]: 0.00015 s⁻¹
- kon [3]: 140000 M⁻¹ s⁻¹
- Kd [4]: 202 ± 28.2 nM
- koff [4]: 0.0093 s⁻¹
- kon [4]: 21000 M⁻¹ s⁻¹

B2: D11 Fab (Fab, V domains shown)
VH: QVQLVQSGAEVKKPGSSVKVSCKASGGTFSSYAISWVRQAPGQGLEWMGGIIPIFGTANYAQKFQGRVTITADESTSTAYMELRSLRSDDTAVYYCARDNLGYCSGGSCYSDYYYYYMDVWGQGTLVTVSS
VL: NFMLTQPRSVSESPGKTVTISCTRSSGSIGSDYVHWYQQRPGSSPTTVIYEDNQRPSGVPDRFSGSIDSSSNSASLTISGLKTEDEADYYCQSYDRSNHEVVFGGGTKLTVL
- Kd [1]: 1.8 ± 0.5 nM
- koff [1]: 0.00029 s⁻¹
- kon [1]: 65000 M⁻¹ s⁻¹
- koff [2]: 0.00041 s⁻¹
- koff [5]: 0.005 s⁻¹
- Kd [3]: 1.4 ± 0.6 nM
- kon [3]: 121000 M⁻¹ s⁻¹
- Kd [6]: 116 ± 19.6 nM
- koff [6]: 0.0047 s⁻¹
- kon [6]: 13000 M⁻¹ s⁻¹

B3: E01 Fab (Fab, V domains shown)
VH: QVQLVQSGAEVKKPGSSVKVSCKASGGTFSSYAISWVRQAPGQGLEWMGGIIPIFGTANYAQKFQGRVTITADESTSTAYMELRSLRSDDTAVYYCARDNLGYCSGGSCYSDYYYYYMDVWGQGTLVTVSS
VL: NFMLTQPRSVSESPGKTVTISCTRSSGSIGSDYVHWYQQRPGSSPTTVIYEDNRRPSGVPDRFSGSIASSANSASLTISGLRPEDEADYYCQSYDSTTNHVVFGGGTKVTVL
- Kd [1]: 6.6 ± 0.9 nM
- kon [1]: 54000 M⁻¹ s⁻¹
- koff [2]: 0.00049 s⁻¹
- Kd [3]: 1.3 ± 0.7 nM
- koff [3]: 0.00014 s⁻¹
- kon [3]: 138000 M⁻¹ s⁻¹
- Kd [4]: 271 ± 31.1 nM
- koff [4]: 0.0173 s⁻¹
- kon [4]: 23000 M⁻¹ s⁻¹

B4: B11 Fab (Fab, V domains shown)
VH: QVQLVQSGAEVKKPGSSVKVSCKASGGTFSSYAISWVRQAPGQGLEWMGGIIPIFGTANYAQKFQGRVTITADESTSTAYMELRSLRSDDTAVYYCARDNLGYCSGGSCYSDYYYYYMDVWGQGTLVTVSS
VL: SYELTQPPSVSVAPGQTATITCGGHNIGSNIVHWYHQKPGQAPELVISHNTNRPSGIPERFSGSNSGSTATLTISRVEAVDEADYYCQVWDSSSEHVVFGGGTKVTVL
- binding result [7]: binds
- binding result [8]: binds

B5: G09 Fab (Fab, V domains shown)
VH: QVQLVQSGAEVKKPGSSVKVSCKASGGTFSSYAISWVRQAPGQGLEWMGGIIPIFGTANYAQKFQGRVTITADESTSTAYMELRSLRSDDTAVYYCARDNLGYCSGGSCYSDYYYYYMDVWGQGTLVTVSS
VL: SYELTQPPSVSVAPGRTATITCEGDNIGQQIVHWYRQKSDQAPVVVVYDGSRRPSGIPERFSGSNSGNTATLTISRVEAGDEADYYCQVWDITSDHVVFGGGTQLTVL
- binding result [7]: binds
- binding result [8]: binds

B6: A01 Fab (Fab, V domains shown)
VH: QVQLVQSGAEVKKPGSSVKVSCKASGGTFSSYAISWVRQAPGQGLEWMGGIIPIFGTANYAQKFQGRVTITADESTSTAYMELRSLRSDDTAVYYCARDNLGYCSGGSCYSDYYYYYMDVWGQGTLVTVSS
VL: SYELTQPPSVSVAPGRTATITCEGDNIGQQIVHWYQQKPGQAPVAVISSDSDRPSGIPERFSGSNSGNTATLTISRVEAGDEADYYCQVWDSGSDHVVFGGGTKVTVL
notes: also called A01 mAb
- koff [9]: 0.0295 s⁻¹
- binding result [8]: binds
- Kd [10]: 2.1 ± 0.1 nM
- koff [10]: 0.00017 s⁻¹

B7: A04 Fab (Fab, V domains shown)
VH: QVQLVQSGAEVKKPGSSVKVSCKASGGTFSSYAISWVRQAPGQGLEWMGGIIPIFGTANYAQKFQGRVTITADESTSTAYMELRSLRSDDTAVYYCARDNLGYCSGGSCYSDYYYYYMDVWGQGTLVTVSS
VL: SYELTQPPSMSVAPGQTARITCGGDYIGGESVHWYQQKPGRAPVAVVYDDTHRPSGIPERFSGANSGNTATLTISKVEAGDEADYYCQVWDVSSDHVVFGGGTKLTVL
- binding result [7]: binds
- binding result [8]: binds

B8: D11 Fab (Fab, V domains shown)
VH: QVQLVQSGAEVKKPGSSVKVSCKASGGTFSSYAISWVRQAPGQGLEWMGGIIPIFGTANYAQKFQGRVTITADESTSTAYMELRSLRSDDTAVYYCARDNLGYCSGGSCYSDYYYYYMDVWGQGTLVTVSS
VL: NFMLTQPRSVSESPGKTVTISCTRSSGSIGSDYVHWYQQRPGSSPTTVIYEDNQRPSGVPDRFSGSIDSSSNSASLTISGLKTEDEADYYCQSYDRSNHEVVFGGGTKLTVL
notes: also called D11 mAb
- koff [7]: 0.00012 s⁻¹
- binding result [8]: binds
- koff [10]: 0.00015 s⁻¹

B9: D11 scFv, 6xHis-FLAG removed with TEV protease (construct for crystals) (scFv, V domains shown)
VH: QVQLVQSGAEVKKPGSSVKVSCKASGGTFSSYAISWVRQAPGQGLEWMGGIIPIFGTANYAQKFQGRVTITADESTSTAYMELRSLRSDDTAVYYCARDNLGYCSGGSCYSDYYYYYMDVWGQGTLVTVSS
VL: NFMLTQPRSVSESPGKTVTISCTRSSGSIGSDYVHWYQQRPGSSPTTVIYEDNQRPSGVPDRFSGSIDSSSNSASLTISGLKTEDEADYYCQSYDRSNHEVVFGGGTKLTVL
notes: source: E. coli BL21(DE3), purified (HisTrap, TEV cleavage, SEC)
- binding result [11]: binds

B10: A01 scFv with C-terminal 6xHis-FLAG extension (scFv, V domains shown)
VH: QVQLVQSGAEVKKPGSSVKVSCKASGGTFSSYAISWVRQAPGQGLEWMGGIIPIFGTANYAQKFQGRVTITADESTSTAYMELRSLRSDDTAVYYCARDNLGYCSGGSCYSDYYYYYMDVWGQGTLVTVSS
VL: SYELTQPPSVSVAPGRTATITCEGDNIGQQIVHWYQQKPGQAPVAVISSDSDRPSGIPERFSGSNSGNTATLTISRVEAGDEADYYCQVWDSGSDHVVFGGGTKVTVL
notes: also called original A01 scFv; source: E. coli BL21(DE3); culture supernatant (DELFIA); purified (HisTrap, SEC)
- pH 7.4/pH 5.8 ratio of toxin remaining bound (TRF signal) [12]: ~12
- pH 7.4/pH 5.8 ratio of toxin remaining bound (fold-difference) [12]: ~13.4 fold

B11: D11 scFv with C-terminal 6xHis-FLAG extension (scFv, V domains shown)
VH: QVQLVQSGAEVKKPGSSVKVSCKASGGTFSSYAISWVRQAPGQGLEWMGGIIPIFGTANYAQKFQGRVTITADESTSTAYMELRSLRSDDTAVYYCARDNLGYCSGGSCYSDYYYYYMDVWGQGTLVTVSS
VL: NFMLTQPRSVSESPGKTVTISCTRSSGSIGSDYVHWYQQRPGSSPTTVIYEDNQRPSGVPDRFSGSIDSSSNSASLTISGLKTEDEADYYCQSYDRSNHEVVFGGGTKLTVL
notes: also called original D11; source: E. coli BL21(DE3); culture supernatant (DELFIA); purified (HisTrap, SEC)
- pH 7.4/pH 5.8 ratio of toxin remaining bound (TRF signal) [12]: ~1.3
- pH 7.4/pH 5.8 ratio of toxin remaining bound (fold-difference) [12]: ~1.2 fold

B12: A01 scFv with His34 (CDR-L1) substituted to alanine (scFv, V domains shown)
VH: QVQLVQSGAEVKKPGSSVKVSCKASGGTFSSYAISWVRQAPGQGLEWMGGIIPIFGTANYAQKFQGRVTITADESTSTAYMELRSLRSDDTAVYYCARDNLGYCSGGSCYSDYYYYYMDVWGQGTLVTVSS
VL: SYELTQPPSVSVAPGRTATITCEGDNIGQQIVAWYQQKPGQAPVAVISSDSDRPSGIPERFSGSNSGNTATLTISRVEAGDEADYYCQVWDSGSDHVVFGGGTKVTVL
notes: also called A01-H34A; source: E. coli BL21(DE3), in culture supernatant
- pH 7.4/pH 5.8 ratio of toxin remaining bound (TRF signal) [12]: 1.6

B13: A01 scFv with His95b (CDR-L3) substituted to alanine (scFv, V domains shown)
VH: QVQLVQSGAEVKKPGSSVKVSCKASGGTFSSYAISWVRQAPGQGLEWMGGIIPIFGTANYAQKFQGRVTITADESTSTAYMELRSLRSDDTAVYYCARDNLGYCSGGSCYSDYYYYYMDVWGQGTLVTVSS
VL: SYELTQPPSVSVAPGRTATITCEGDNIGQQIVHWYQQKPGQAPVAVISSDSDRPSGIPERFSGSNSGNTATLTISRVEAGDEADYYCQVWDSGSDAVVFGGGTKVTVL
notes: also called A01-H95bA; source: E. coli BL21(DE3), in culture supernatant
- fold reduction of the pH 7.4/pH 5.8 ratio against the A01 scFv [12]: ~3 fold

B14: D11 scFv with serine at position 32 (CDR-L1) and histidine at position 49 (FWR-2) (scFv, V domains shown)
VH: QVQLVQSGAEVKKPGSSVKVSCKASGGTFSSYAISWVRQAPGQGLEWMGGIIPIFGTANYAQKFQGRVTITADESTSTAYMELRSLRSDDTAVYYCARDNLGYCSGGSCYSDYYYYYMDVWGQGTLVTVSS
VL: NFMLTQPRSVSESPGKTVTISCTRSSGSIGSDSVHWYQQRPGSSPTTVIHEDNQRPSGVPDRFSGSIDSSSNSASLTISGLKTEDEADYYCQSYDRSNHEVVFGGGTKLTVL
notes: also called D11-Y32S-Y49H (name built from the text: serine at position His32 of D11-Y32H-Y49H); source: E. coli BL21(DE3), in culture supernatant
- binding result [12]: binds

B15: C05 scFv with T31D (CDR-L1) (scFv, V domains shown)
VH: QVQLVQSGAEVKKPGSSVKVSCKASGGTFSSYAISWVRQAPGQGLEWMGGIIPIFGTANYAQKFQGRVTITADESTSTAYMELRSLRSDDTAVYYCARDNLGYCSGGSCYSDYYYYYMDVWGQGTLVTVSS
VL: NFMLTQPHSVSESPGKTVTISCTRSSGSIASDYVHWYQQRPGSAPTTVIYEDNQRPSGVPDRFSGSIDSSSNSASLTISGLKTEDEADYYCQSYDSSNGSVVFGGGTKLTVL
notes: source: E. coli BL21(DE3), in culture supernatant
- binding result [13]: binds
